From publication doi:10.1101/2025.05.02.651972 come the findings set out here.

Broadly, the Kd is the concentration at which binding is half-saturated.

The test concerns the target recombinant extracellular domain of EGFR (human) (UniProt P00533). As to the kind of experiment: MST.

Consider “recombinant epiregulin (from UniProt O14944) (ligand)”, for which the Kd was 500 nM.
